In patent US8343490B2, “Monoclonal antibody SC104 and derivative thereof specifically binding to a sialyltetraosyl carbohydrate as a potential anti-tumor therapeutic agent” (Cephalon Australia Pty Ltd, priority 2004, dated 2013):

Key:
[1] = system: range of tumour cell lines; test: Binding to tumour cell lines by ELISA; details: SC104 1 μg/ml; FIG. 2a
Experimental: C170, Colo205, MKN45, R1D9, and 791T cells (10^5) were resuspended in 50 μl of SC104 mab (0-20 μg/ml) and incubated on ice for 20 min. After washing the samples 3 times in RPMI/10% FCS cells were incubated with FITC labelled rabbit anti-mouse (1/50: Dako Ltd, Bucks, UK) antibody and incubated on ice for 30 minutes prior to analysis on a FACScan (Becton Dickinson, Sunnyvale, Calif.). Results are expressed as mean linear fluorescence (MLF). • Binding to tumour cells by ELISA. 96-well tissue culture plates were coated with cells at a cell density of 5×10^5 cells/ml (100 μl/well) in 10% foetal bovine serum in RPMI 1640. The plates were incubated overnight at 37° C., 5% CO2, 95% air. The cells were then washed twice in phosphate buffered saline (pH7.3, PBS) prior to being fixed with 0.5% glutaraldehyde in PBS (10 min, 25° C., 100 μl/well). Remaining non-specific binding sites were blocked by incubation for 1 hr with 1% bovine serum albumin (fraction V from Sigma Chemicals Ltd.) in PBS. The cells were washed three times with a washing solution consisting of 0.05% Tween 20 in phosphate buffered saline. Cells were incubated with SC104 (1 μg/ml) for 1 hr at room temperature and then bound antibody detected with goat anti-mouse horse radish peroxidase and ABTS. Results are expressed as absorbance at 405 nm. Results

[2] = system: freshly disaggregated colorectal tumour cells; test: Primary tumour binding, flow cytometry
Experimental: • Primary tumour binding. Tumour specimens were obtained at the time of colorectal cancer resection. Specimens were finely minced and disaggregated with 0.05% collagenase (Type IV, Boehringer Mannheim, Lewes, UK) for 20 min at 37° C. The tumour cell suspension was removed and washed 3 times in Hanks balanced salt solution (Gibco BRL, Paisley, UK). Fresh collagenase was added to the remaining tissue and it was reincubated for a further 20 min. This procedure was repeated twice before combining cells from all dissociations and resuspending them in Dulbecco's medium containing 20% fetal calf serum (Gibco). Cells were incubated for 1 hr at 4° C. with SC104 mab (1 μg). […] Normal mouse immunoglobulin was used as a negative control and this fluorescence was subtracted from the fluorescence obtained with SC104. […] Results are expressed as mean linear fluorescence (MLF). […] The percentage of epithelial cells is measured by staining of cytokeratin mab Cam 5.2. was only 22±13% (range 10-60). However, following forward angle light scatter gating to selectively analyse cells in the malignant cell size range 79±4% (range 69-86) of the cells analysed were epithelial. […] The percentage of leukocytes as measured by staining with the anti-CD45 mab F-10-89 in the total nucleate population was 74±16 (range 40-90). […]

[3] = system: Colo205; test: Inhibition of cell growth, MTS; assay type: cell-based
Experimental: (§1) Inhibition of cell growth. 1×10^3 colorectal C170, C168, C146, CaCO2, Colo205, LoVo and HT29 cells were aliquoted into individual wells of a flat bottomed 96-well plate and left to adhere overnight at 37° C. The following day the cells were treated with: 10, 3, 1, 0.3 and 0 μg/ml of SC104 mab. As a negative control 791T/36 at concentrations 100, 30, 10, 3 and 0 μg/ml, was titrated against each concentration of drug used. Triplicate wells were used. Cells were left for 5 days at 37° C. prior to the addition of MTS reagent to each well and optical density reading at 490 nm.

[4] = system: C170; test: Inhibition of cell growth, MTS; assay type: cell-based
Experimental: as §1

[5] = system: caspase 6 in C170 cells; test: Caspase 6 activation (Western blot); assay type: cell-based; details: 6 hrs; SC104 at 10, more intensely at 100 μg/ml; FIG. 18
Experimental: Caspase 6 activation by SC104 mab. 2×10^5 colorectal C170 cells were exposed to 1-100 μg/ml of SC104 for 6 hrs and cell lysates generated. The lysates were subsequently run a 12% SDS-PAGE, Western blotted and probed with a caspase 6 specific antibody (Cleaved caspase 6 antibody, Cell Signalling Technology (NEB), catalogue number 9761). Cells exposed to SC101 were included as a negative control.

[6] = system: normal colon; test: Immunohistochemistry of normal colon (screening); assay type: binding; parameters: key: −: negative; +: minimal; 2+: strong; 3+: very strong
[7] = Blood group antigen ELISA, H type II; assay type: binding
Experimental: The Lewis ^y hapten and the type I and type II H blood group antigen (Sigma, Poole, Dorset) were dried microtitre plates by overnight incubation at 37° C. Binding of SC104 mab was assayed by ELISA as described above.

[8] = system: colorectal tumour sections; test: Immunoperoxidase staining of frozen colorectal tumour sections (screening); assay type: binding; parameters: key: −: negative; +: minimal; 2+: strong; 3+: very strong
Experimental: ELISA. Antibody responses in the serum of immunised mice were assayed by titration using a standard non-competitive ELISA procedure. 96-well tissue culture plates were coated with C170 cells at a cell density of 5×10^5 cells/ml (100 μl/well) in 10% foetal bovine serum in RPMI 1640. The plates were incubated overnight at 37° C., 5% CO2, 95% air. The cells were then washed twice in phosphate buffered saline (pH7.3, PBS) prior to being fixed with 0.5% glutaraldehyde in PBS (10 min, 25° C., 100 μl/well). Remaining non-specific binding sites were blocked by incubation for 1 hr with 1% bovine serum albumin (fraction V from Sigma Chemicals Ltd.) in PBS. The cells were washed three times with a washing solution consisting of 0.05% Tween 20 in phosphate buffered saline before assaying post-boost serum for binding to C170 cells using a non-competitive sandwich ELISA. The pre-immunisation serum was used as a negative control. • Immunohistochemistry. Binding of hybridoma supernatants to tumour tissues was determined by indirect immunoperoxidase staining of frozen colorectal tumour sections. […] The bound antibody was detected with rabbit anti-mouse Ig conjugated to peroxidase (Dako Ltd., Bucks., UK) and following extensive washing the slides were stained with 0.05% diaminobenzidine and 0.01% H2O2 in 0.05M Tris-HCl, pH7.6 and counterstained with haematoxylin. […]

[9] = concentrations in excess of 10 μg/ml, FIG. 20

B1: SC104: mouse IgG1 monoclonal antibody specific for a sialyltetraosyl carbohydrate, raised by immunisation with colorectal cancer cell lines (antibody, V domains shown)
VH: DVQLQESGPDLVKPSQSLSLTCTVTGYSITSGYSWHWVRQFPGNKMEWMGHIHFSGRPTYNPSLSSRISITRDTSKNQFLLQLKFVTTEDTSTYFCARKGKGSDDGLNYWGQGISVTVSS
VL: ENVLTQSPVIMSASPGEKVTMTCSASSSLSYIHWYQQKSRTSPKLWIYDTSNLASGVPGRFSGSGSGNSYSLTISSMEAEDVATYYCFQGSEYPLTFGGGTKLEMT
[1]
  binding to range of tumour cell lines by ELISA: predominantly bound to cell lines of the gastrointestinal origin
[2]; FIG. 3
  freshly disaggregated colorectal tumour cells bound strongly: > 80%
[2]; freshly disaggregated colorectal tumour cells
  mean antigen density: 4×10^5 antigens per cell
[3]; 30 μg/ml
  % inhibition of cell growth as measured by MTS staining: 55%
[3]; [9]
  inhibition of growth of adherent cells (MTS): inhibited growth
[4]; 30 μg/ml
  % inhibition of cell growth as measured by MTS staining: 70%
[4]; [9]
  inhibition of growth of adherent cells (MTS): inhibited growth
[5]
  caspase 6 activation: activation of caspase 6
[6]
  Immunohistochemistry Normal colon: +
[7]
  Binding to blood group antigens by ELISA: H blood group Type II: 0.076 OD 405 nm
[8]
  Immunohistochemistry Colorectal Tumour: 3+
